# Laboratory results published in publication PMC6385126.
# What was measured:
# [1] = test system: His1 (position 1, -----HVD---); test: Raman; settings: 22 °C; not stated (no added salt apart from NaOH/HCl used for pH adjustment); none stated; C2-deuterated peptide H(C2-D)VD, about 10 mM, free in solution
# [2] = test system: His1 (position 1, -----HVD---); test: NMR; settings: 25 °C; none stated (0.1% DSS as shift standard); Non-deuterated peptide, 1 mM, free in solution
substance,measurement,setting,value
"HVD tripeptide (Ac-His-Val-Asp-NH2), N-terminal fragment of a hydrogel-forming semenogelin I peptide (synthetic; sequence derived from Homo sapiens semenogelin I)",pKa,[1],6.82
same,pKa,[2],6.87 ± 0.03
